This passage reports self-cleavage results from the RNAGym collection of RNA variant scans (doi:10.7554/elife.90254).

Sequences and labels used below:
B1: OR4K15 (parent)
chain: GUUAACGGUCAUAGGCCAUGGAAACUAGGAGCACCAUUUCGCUGCCAGUGAAGAAAUGAACAAAGAAAAUCUGGGCCAGGCAGGCAUCAAAAGAAAUAGUCUUGCGCUCAACCAGAAAGUCUGUAAUCAUUUUAAGGGUA

This data set covers variants of B1. The data set can be described thus: self-cleavage, relative activity (ratio to wild type); higher = more cleavage; in vitro, sequencing; the parent is a self-cleaving ribozyme.
GUUAUCGGUCAUAGGCCAUGGAAACUAGGAGCACCAUUUCGCUGCCAGUGAAGAAAUGAACAAAGAAAAUCUGGGCCAGGCAGGCAUCAAAAGAAAUAGUCUUGCGCUCGACCAGAAAGUCUGUAAUCAUUUUAAGGGUA [A5U A110G]: the self-cleavage was determined as 0.29.
Turning to GUUGACGGUCAUAGGCCAUGGAAACUAGGAGCACCAUUUCGCAGCCAGUGAAGAAAUGAACAAAGAAAAUCUGGGCCAGGCAGGCAUCAAAAGAAAUAGUCUUGCGCUCAACCAGAAAGUCUGUAAUCAUUUUAAGGGUA [A4G U43A], the self-cleavage amounted to 1.26.
Turning to GUUAACGGUCAUAGGCCAUGGAACCUAGGAGCACCAUUUCGCUGCCAGUGAAGAAAUGAACAAAGAAAAUCUGGGCCAGGCAGGCAUCAAAAGAAAUAGUCUCGCGCUCAACCAGAAAGUCUGUAAUCAUUUUAAGGGUA [A24C U103C], the self-cleavage worked out at 1.38.
GUUAACGGUCAUAGGCCAUGGAAACUAGGAGCACCAUUUCGCUGCCAGUGAAGAAAUGAACAAAGAAAAUCUGGGCCAGGCAGGCAUCAAAAGAAAUAGUCUUGCGCUCAACCGGAAAGACUGUAAUCAUUUUAAGGGUA [A114G U120A]: the self-cleavage was determined as 0.2.
Turning to GUUAACGGUCAUAGGCCAUGGAAACUAGGAGCACCAUUUCGCUGCCAGUGAGGAAAUGAACAAAGAAAAUCUGGGCCAGGCAGGCAUCAAAAGAAAUAGUCUUGCGCUCGACCAGAAAGUCUGUAAUCAUUUUAAGGGUA [A52G A110G], the self-cleavage is 0.17.
On to GUGAACGGUCAUAGGCCAUGGAAACUAGGAGCACCAUUUCGCUGCCAGUGAAGAAAUGAACAAAGAAAAUCUGGGCCAGGCAGGCAUCAAAAGAAAUAGUCUUGCGCUCAACCAGAAAGUCUGUAAUCAUUUUAAGGGUA [U3G], for which the self-cleavage came out at 1.07.
Consider GUUAACGGUCAUAGGCCAUGGAAACUAGGAGCACCUUUUCGCUGCCAGUGAAGAAAUGAACAAAGAAAAGCUGGGCCAGGCAGGCAUCAAAAGAAAUAGUCUUGCGCUCAACCAGAAAGUCUGUAAUCAUUUUAAGGGUA [A36U U70G], for which the self-cleavage turned out to be 1.53.
Regarding GUUAACGGUCAUAGGCCAUGGAAACUAGGAGCACCAUUUCGCUGCCAGUGAAGAAAAGAACAAAGAAAAUCUGGGCCAGGCAGGCAUCAAAGGAAAUAGUCUUGCGCUCAACCAGAAAGUCUGUAAUCAUUUUAAGGGUA [U57A A92G], the self-cleavage was 1.42.
The result for GUUAACGGACGUAGGCCAUGGAAACUAGGAGCACCAUUUCGCUGCCAGUGAAGAAAUGAACAAAGAAAAUCUGGGCCAGGCAGGCAUCAAAAGAAAUAGUCUUGCGCUCAACCAGAAAGUCUGUAAUCAUUUUAAGGGUA [U9A A11G] reads 0.92; that for GUUAACGGUCAUAGGCCAUGGAAACUAGGAGCACCAUUUCGCUGCCAGUGAAGAAAUGAACAAAGAAAAUCUGGGCCAGGCAGGCACCAAAAGAAAUAGUCUCGCGCUCAACCAGAAAGUCUGUAAUCAUUUUAAGGGUA [U87C U103C], 0.95.
Take GUUAACGGUCAUAGGCCAUGGAAACUAGGAGCACCAUUUCGCUGCCAGUGAAGAAAUGAACAAAGAAAAUCUGGGCCAGGCAGGCACCAAAAGAAAUAGUCGUGCGCUCAACCAGAAAGUCUGUAAUCAUUUUAAGGGUA [U87C U102G]: the self-cleavage is 0.27.
Take GUUAACGGUCAUAGGCCAUGGAAACUAGGAGCACCAUUUCGCUGCCAGUGAAGAAAUGAACAAAGAAAAUCUGGGCCAGGCAGGCAUCAAAAGAAAUAGUCUUGCGCCCAACCAGAAAGUCUGUAAUCAUUUUAGGGGUA [U108C A135G]: the self-cleavage was 0.01.
On to GUUAACGGUCAUAGGCCAUGGAAACUAGGAGCACCAUUUCGCUGCCAGUGAGGAAAAGAACAAAGAAAAUCUGGGCCAGGCAGGCAUCAAAAGAAAUAGUCUUGCGCUCAACCAGAAAGUCUGUAAUCAUUUUAAGGGUA [A52G U57A], for which the self-cleavage amounted to 1.31.
The result for GUUAACGGUCAUAGGCCAUGGAAACUAGGAGCACCAUUUCGCUGCCAGUGAAGAAAUGAACAAAGAAAAUCUGGGCCAGGCAGUCAUCAAAAGAAAUAGUCUUGCGCUCAACCGGAAAGUCUGUAAUCAUUUUAAGGGUA [G84U A114G] reads 0.45; that for GUUAACGGUCAUAGGCCAUGGAAACUAGGAGCACCAUUUCGCUGCCAGUGAAGAAAUGAACAAAGAAAAUCUGGGCCAGGCAGGCAUCAAAAGAAAUUGUCUUGCGCUCUACCAGAAAGUCUGUAAUCAUUUUAAGGGUA [A98U A110U], 1.67.
As for GUUAACGGUCAUAGGCCAUGGAAACUAGGUGCACCAUUUCGCUGCCAGUGAAGAAAUGAACAAAGAAAAUCUGGGCCAGGCAGGCAUCAAAAGAAAUAGUCUUGCGCUCAACCAGAAAGCCUGUAAUCAUUUUAAGGGUA [A30U U120C], the self-cleavage turned out to be 1.29.
Take GUUAACGGUCAUAGGCCAUGGAAACUAGGAGCACCAUUUCGCUGCCAGUGAAGAAAUGAACAAAGAAAAUCUGGGCCAGGCUGGCACCAAAAGAAAUAGUCUUGCGCUCAACCAGAAAGUCUGUAAUCAUUUUAAGGGUA [A82U U87C]: the self-cleavage amounted to 0.22.
For GUUAACGGUCAUAGGCCAUGGAAACUAGGAGCACCAUAUCGCUGCCAGUGAAGAAAUGAACAAGGAAAAUCUGGGCCAGGCAGGCAUCAAAAGAAAUAGUCUUGCGCUCAACCAGAAAGUCUGUAAUCAUUUUAAGGGUA [U38A A64G], the self-cleavage was 1.37.
The result for GUUAACGGUCAUAGGCCAUGGAAACUUGGAGCACCAUUUCGCUGCCAGUGAAGAAAUGAACAAAGAAAAUCUGGGCCAGGCAGGCAUCAAGAGAAAUAGUCUUGCGCUCAACCAGAAAGUCUGUAAUCAUUUUAAGGGUA [A27U A91G] reads 1.19; that for GUUAGCGGUCAUAGGCCAUGGAAACUAGGAGCACCAUUUCGCUGCCAGUGAAGAAAUGAACAAAGAAAAUCUGGGCCAGGCAGGCAUCAAAAGAAAUAGUCUUGCGCUCAACCAGAAAGUCUGUAAUCAUUUUAAGGGUU [A5G A140U], 1.38; that for GUUAACGGUCAUAGGCCAUGGAAACUAGGAGCACCAUUUCGCUGCCAGUGAAGAAAUGAACAAAGUAAAUCUGGGCCAGGCAGGCAUCAAAAGAAAUAGUCUUGCGCUCAACCAGAAAGUCUGUAAUCAUUUUAAGGGUA [A66U], 1.36.
As to GUUACCGGUCAUAGGCCAUGGAAACUAGGAGCACCAUUUCGCUGCCAGUGAAGAAAUGAACAAAGAAAAUCUGGGCCAGGCAGGCAUCAAAAGAAAUAGUCUUGCGCUCAACCAGAUAGUCUGUAAUCAUUUUAAGGGUA [A5C A117U], the self-cleavage was determined as 0.56.
As to GUUAACGGUCAUAGGCCAUGGAAACUAGGAGCACCAUUUCGCUGCCAGUGAAGAAAUGAACAAAGAAAAUCUGAGCCAGGCAGGCAUCAAAAGAAAUAGUCUUGCGCUCAACCAGAAAGUCUGUGAUCAUUUUAAGGGUA [G74A A125G], the self-cleavage turned out to be 0.05.
Take GUUAACGGCCAUAGGCCAUGGAAACUAGGAGCACCAUUUCGCUGCCAGUGAAGAAAUGAACAAAGAAAAUCUGGGCCAGGCUGGCAUCAAAAGAAAUAGUCUUGCGCUCAACCAGAAAGUCUGUAAUCAUUUUAAGGGUA [U9C A82U]: the self-cleavage was determined as 0.35.
Next, GUUAACGGUCAUAGGCCAUGGAAACUAGGAGCACCAUUACGCUGCCAGUGAAGAGAUGAACAAAGAAAAUCUGGGCCAGGCAGGCAUCAAAAGAAAUAGUCUUGCGCUCAACCAGAAAGUCUGUAAUCAUUUUAAGGGUA [U39A A55G]: 1.53; GUUAACGGUCAUGGGCCAUGGAAACUAGGAGCACCAUUGCGCUGCCAGUGAAGAAAUGAACAAAGAAAAUCUGGGCCAGGCAGGCAUCAAAAGAAAUAGUCUUGCGCUCAACCAGAAAGUCUGUAAUCAUUUUAAGGGUA [A13G U39G]: 1.52; GUUAACGGUCAUAGGCCAUGGUAACUAGGAGCACCAUUUCGCUGCCAGUGAAAAAAUGAACAAAGAAAAUCUGGGCCAGGCAGGCAUCAAAAGAAAUAGUCUUGCGCUCAACCAGAAAGUCUGUAAUCAUUUUAAGGGUA [A22U G53A]: 1.47.
On to GUUAACGGUCAUAGGCCAUGGAAACUAGGAGCACCAUUUCGCUGCCAGUGAAGAAAUGAACAAAGGAAAUCUGGGCCAGGCAGGCAUCAAAAGAAAUAGUCAUGCGCUCAACCAGAAAGUCUGUAAUCAUUUUAAGGGUA [A66G U102A], for which the self-cleavage turned out to be 0.89.
With GUCAACGGUCAUAGGCCAUGGAAACUAGGAGCACCAUUUCGCUGCCAGUGAAGAAAUGAACAAAGAAAAUCUGGGCCAGGCAGGCAUCAAAAGAAAUAGUCUUGCGCUCAACCAGAAAGUCUGUAAUCAUUUUUAGGGUA [U3C A134U], the self-cleavage came out at 0.67.
Consider GUUAACGGCCAUAGGCCAUGGAAACUAGGAGCACCAUUUAGCUGCCAGUGAAGAAAUGAACAAAGAAAAUCUGGGCCAGGCAGGCAUCAAAAGAAAUAGUCUUGCGCUCAACCAGAAAGUCUGUAAUCAUUUUAAGGGUA [U9C C40A], for which the self-cleavage amounted to 1.25.
The result for GUUAACGGUCAUAGGCCAUGGAAACUAGGAGCACCAUUUCGCUGCCAGUGAAGAAAUGAACAAAGAAAAUCUGGGCCAGGCAGGCAUCAAAAGAAAUAGUCUUGCGCUCAACCAGCAAGUCUGUAAUCAUCUUAAGGGUA [A116C U131C] reads 0; that for GUUAACGGUCAUAGGCCAUGGCAACUAGGAGCACCAUUUCGCUGCCAGUGAAGAAAUGAACAAAGAAAAUCUGGGCCAGGCAGGCAUCAAAAGAAAUAGUCUUGCGCUCAACCAGAAAGUCUGUAAUCAUUUUAAGGGUA [A22C], 1.11.
On to GUUAACGGUCAUAGGCCAUGGAAACUAGGAGCACCAUUUCGCUGCCAGUGAAGAGAUGAACAAAGAAAAUCUGGGCCAGGCAGGCAUCAAAAGAAAUAGUCUUGCGCUCAACCAGAAAGUCUGUAAUCAUUCUAAGGGUA [A55G U132C], for which the self-cleavage was 1.46.
With GUUAACGGUCAUAGGCCAUGGAAACUAGGAGCACCAUUUCACUGCCAGUGAAGAAAUGAACAAAGAAAAUCUGGGCCAGGCAGGCAUCAAAAGAAAUAGUCUUGCGCUCAACCAGAAAGUCUGUGAUCAUUUUAAGGGUA [G41A A125G], the self-cleavage turned out to be 0.77.
For GUUAACGGUCAUAGGCCAUGGAAACUAGGAGCACCAUUUCGCUGCCAGUGAAGAAAUGAACAAAGAAAAUCUUGGCCAGGCAGGCAUCAAAAGAAAUAGUCUUGCGCCCAACCAGAAAGUCUGUAAUCAUUUUAAGGGUA [G73U U108C], the self-cleavage was found to be 0.02.
Regarding GUUAACAGUCAUAGGCCAUGGAAACUAGGAGCACCAUUUCGCUGCCAGUGAAGAAAUGAACAAAGAAAAUCUGGGCCAGGCAGGCAUCAAAAGAAAUAGUCUUGCGCCCAACCAGAAAGUCUGUAAUCAUUUUAAGGGUA [G7A U108C], the self-cleavage worked out at 0.
Consider GUUAACGGUCAUAGGCCAUGGAAACUAGGAGCACCAUUUCGCUGCCAGUGAAGAAAUGAGCAAAGAGAAUCUGGGCCAGGCAGGCAUCAAAAGAAAUAGUCUUGCGCUCAACCAGAAAGUCUGUAAUCAUUUUAAGGGUA [A60G A67G], for which the self-cleavage turned out to be 0.84.
Turning to GUUAACGGUCAUAGGCCAUGGAAACUAGGAGCACCAUUUCGCUGCCAGUGAAGUAAUGAACAAAGAAAAUCUGGGCCAGGCAGGCAUCAAAAGAAAUAGUCUUGCGCUCAACCAGGAAGUCUGUAAUCAUUUUAAGGGUA [A54U A116G], the self-cleavage worked out at 0.83.
As to GUUAACGGUCAUAGGCCAUGGAAACUAGGGGCACCAUUUCGCUGCCAGUGAAGAAAUGAUCAAAGAAAAUCUGGGCCAGGCAGGCAUCAAAAGAAAUAGUCUUGCGCUCAACCAGAAAGUCUGUAAUCAUUUUAAGGGUA [A30G A60U], the self-cleavage came out at 0.79.
Regarding GUUAACGGUCAUAGGUCAUGGAAACUAGGAGCACCAUUUCGCUGCCAGUGAAGAAAUGAACAAAGAAAAUCUGGGCCAGGCAGGCAUCAAAAGAAAUAGUCUUGCGCUCAACCAGAGAGUCUGUAAUCAUUUUAAGGGUA [C16U A117G], the self-cleavage stood at 1.84.
With GUUAACGGUCAUAGGCCAUGGAAAUUAGGAGCACCAUUUCGCUGCCAGUGAAGAAAUGAACAAAGCAAAUCUGGGCCAGGCAGGCAUCAAAAGAAAUAGUCUUGCGCUCAACCAGAAAGUCUGUAAUCAUUUUAAGGGUA [C25U A66C], the self-cleavage was 1.33.
